Test results as given in patent US20240417436A1.
Bridges are numbered along the chain shown (N, C = ends). Primed or numbered codes have the meaning given here. [ ]: non-standard residue; d: D form. Yn3(5) = tyrosine residue modified with an azide-capped PEG9 group (O-(PEG9-azido)-tyrosine); Ygp(5) = O-(8x polyethylene glycol-amino)-tyrosine (Tyr-PEG8-amine); Ygp = O-(8x polyethylene glycol-amino)-tyrosine; Yn3 = O-(9x polyethylene glycol-azido)-tyrosine; PEG9′ = polyethylene glycol spacer of 9 units; 4x polyethylene glycol = not defined here; hSer = N[C@@H](CCO)C(=O)O; Nle = CCCC[C@H](N)C(=O)O

Experiments:
[1] = molecular target: IL-2 receptor βγ complex (CD122/CD132) on HEK-Blue IL-2Rβγ reporter cells (UniProt P14784); test: cell-based or functional assay
Sequence of IL-2 receptor βγ complex (CD122/CD132) on HEK-Blue IL-2Rβγ reporter cells (P14784 27-551 limits assumed, chain 1 of 2): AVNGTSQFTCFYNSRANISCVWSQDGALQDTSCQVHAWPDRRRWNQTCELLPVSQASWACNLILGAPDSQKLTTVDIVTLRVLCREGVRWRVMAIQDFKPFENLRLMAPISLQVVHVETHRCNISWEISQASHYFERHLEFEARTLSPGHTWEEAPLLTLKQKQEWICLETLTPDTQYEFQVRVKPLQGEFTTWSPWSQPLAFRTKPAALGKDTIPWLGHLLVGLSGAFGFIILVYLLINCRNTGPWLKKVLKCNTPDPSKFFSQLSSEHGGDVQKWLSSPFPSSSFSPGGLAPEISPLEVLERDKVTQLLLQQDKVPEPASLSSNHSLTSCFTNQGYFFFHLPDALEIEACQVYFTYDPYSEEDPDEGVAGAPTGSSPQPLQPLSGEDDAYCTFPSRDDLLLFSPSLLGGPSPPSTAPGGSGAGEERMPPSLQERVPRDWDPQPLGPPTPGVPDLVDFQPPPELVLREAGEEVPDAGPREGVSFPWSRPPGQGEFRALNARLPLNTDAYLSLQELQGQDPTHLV
Sequence of IL-2 receptor βγ complex (CD122/CD132) on HEK-Blue IL-2Rβγ reporter cells (P31785 23-369 limits assumed, chain 2 of 2, further chain): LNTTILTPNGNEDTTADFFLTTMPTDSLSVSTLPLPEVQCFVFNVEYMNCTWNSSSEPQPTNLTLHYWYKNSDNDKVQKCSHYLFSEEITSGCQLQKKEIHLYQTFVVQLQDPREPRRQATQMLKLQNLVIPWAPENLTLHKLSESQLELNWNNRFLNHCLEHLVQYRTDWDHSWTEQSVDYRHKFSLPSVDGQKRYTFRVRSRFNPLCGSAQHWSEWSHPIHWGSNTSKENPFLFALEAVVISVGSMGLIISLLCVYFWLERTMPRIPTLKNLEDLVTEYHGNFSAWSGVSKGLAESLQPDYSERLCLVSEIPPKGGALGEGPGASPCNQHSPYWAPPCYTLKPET

[2] = molecular target: IL-2 receptor βγ complex on human cells (pan T cells, PBMC NK cells, NK92 PD1+ cells) (human) (UniProt P14784); test: cell-based or functional assay
Sequence of IL-2 receptor βγ complex on human cells (pan T cells, PBMC NK cells, NK92 PD1+ cells) (human) (P14784 27-551, chain 1 of 2): as the sequence (P14784 27-551 limits assumed, chain 1 of 2) above
Sequence of IL-2 receptor βγ complex on human cells (pan T cells, PBMC NK cells, NK92 PD1+ cells) (human) (P31785 23-369, chain 2 of 2, further chain): as the sequence (P31785 23-369 limits assumed, chain 2 of 2, further chain) above

| Binder | Average EC50, HEK-Blue IL-2R (CD122+, CD132+) reporter assay [1] [nM] | Average EC50, pSTAT5 assay in NK cells [2] [nM] |
| --- | --- | --- |
| CMP-302 (ligand, lactam N-30) GPLGLAGAPTSSSTKKTQLQLEHLLLDLQEILNGINNYKNPKLTR[Nle]L[hSer][Yn3]KF[Ygp][Nle]PKKATELKHLQCLEEELKPLEEVL[hSer]LAQSKNFHLRPRDLISNINVIVLELKGSETTF[hSer]CEYADETATIVEFLNRWITFSQSIISTLT | 0.436 |  |
| CMP-303 (ligand, linker (positions not given here) via 4x polyethylene glycol; not fully specified (bridges); reading uncertain; also: ring may run through the N-terminus of residue 1, not given here) PLGLAGAPTSSSTKKTQLQLEHLLLDLQEILNGINNYKNPKLTR[Nle]L[hSer][Yn3]KF[Ygp][Nle]PKKATELKHLQCLEEELKPLEEVL[hSer]LAQSKNFHLRPRDLISNINVIVLELKGSETTF[hSer]CEYADETATIVEFLNRWITFSQSIISTLT | 0.521 |  |
| CMP-304 (ligand, bridge N-29 via PEG9′) PLGLAGAPTSSSTKKTQLQLEHLLLDLQEILNGINNYKNPKLTR[Nle]L[hSer][Yn3]KF[Ygp][Nle]PKKATELKHLQCLEEELKPLEEVL[hSer]LAQSKNFHLRPRDLISNINVIVLELKGSETTF[hSer]CEYADETATIVEFLNRWITFSQSIISTLT | 0.34 |  |
| CMP-318 (ligand, lactam N-32) SGRVANLVGAPTSSSTKKTQLQLEHLLLDLQEILNGINNYKNPKLTR[Nle]L[hSer][Yn3]KF[Ygp][Nle]PKKATELKHLQCLEEELKPLEEVL[hSer]LAQSKNFHLRPRDLISNINVIVLELKGSETTF[hSer]CEYADETATIVEFLNRWITFSQSIISTLT | 3.37 | 37.4 |
| CMP-318, MMP2 cleaved molecule (ligand, not fully specified (bridges)) SGRVANLVGAPTSSSTKKTQLQLEHLLLDLQEILNGINNYKNPKLTR[Nle]L[hSer][Yn3]KF[Ygp][Nle]PKKATELKHLQCLEEELKPLEEVL[hSer]LAQSKNFHLRPRDLISNINVIVLELKGSETTF[hSer]CEYADETATIVEFLNRWITFSQSIISTLT | 0.0259 | 0.388 |
| CMP-318, Matriptase cleaved molecule (ligand, lactam N-32; also: treated with matriptase, cleavage site not given here) SGRVANLVGAPTSSSTKKTQLQLEHLLLDLQEILNGINNYKNPKLTR[Nle]L[hSer][Yn3(5)]KF[Ygp(5)][Nle]PKKATELKHLQCLEEELKPLEEVL[hSer]LAQSKNFHLRPRDLISNINVIVLELKGSETTF[hSer]CEYADETATIVEFLNRWITFSQSIISTLT | 2.47 | 33.7 |
| CMP-319 (ligand, lactam N-33) RGRRVANLVGAPTSSSTKKTQLQLEHLLLDLQEILNGINNYKNPKLTR[Nle]L[hSer][Yn3(5)]KF[Ygp(5)][Nle]PKKATELKHLQCLEEELKPLEEVL[hSer]LAQSKNFHLRPRDLISNINVIVLELKGSETTF[hSer]CEYADETATIVEFLNRWITFSQSIISTLT | 1.05 | 7.72 |
| CMP-319, MMP2 cleaved molecule (ligand, lactam N-33; also: treated with MMP2 (cleavage site not given here)) RGRRVANLVGAPTSSSTKKTQLQLEHLLLDLQEILNGINNYKNPKLTR[Nle]L[hSer][Yn3(5)]KF[Ygp(5)][Nle]PKKATELKHLQCLEEELKPLEEVL[hSer]LAQSKNFHLRPRDLISNINVIVLELKGSETTF[hSer]CEYADETATIVEFLNRWITFSQSIISTLT | 0.049 | 0.713 |
| CMP-319, Matriptase cleaved molecule (ligand, lactam N-33; also: treated with matriptase (cleavage site not given here)) RGRRVANLVGAPTSSSTKKTQLQLEHLLLDLQEILNGINNYKNPKLTR[Nle]L[hSer][Yn3(5)]KF[Ygp(5)][Nle]PKKATELKHLQCLEEELKPLEEVL[hSer]LAQSKNFHLRPRDLISNINVIVLELKGSETTF[hSer]CEYADETATIVEFLNRWITFSQSIISTLT | 0.0507 | 0.804 |
| CMP-320 (ligand, lactam N-34) SGRVAPQPLVDAPTSSSTKKTQLQLEHLLLDLQEILNGINNYKNPKLTR[Nle]L[hSer][Yn3(5)]KF[Ygp(5)][Nle]PKKATELKHLQCLEEELKPLEEVL[hSer]LAQSKNFHLRPRDLISNINVIVLELKGSETTF[hSer]CEYADETATIVEFLNRWITFSQSIISTLT | 0.775 | 13.2 |
| CMP-320, MMP2 cleaved molecule (ligand, lactam N-34; also: treated with MMP2 (cleavage site not given here)) SGRVAPQPLVDAPTSSSTKKTQLQLEHLLLDLQEILNGINNYKNPKLTR[Nle]L[hSer][Yn3(5)]KF[Ygp(5)][Nle]PKKATELKHLQCLEEELKPLEEVL[hSer]LAQSKNFHLRPRDLISNINVIVLELKGSETTF[hSer]CEYADETATIVEFLNRWITFSQSIISTLT | 0.0392 | 0.571 |
| CMP-320, Matriptase cleaved molecule (ligand, lactam N-34; also: treated with matriptase (cleavage site not given here)) SGRVAPQPLVDAPTSSSTKKTQLQLEHLLLDLQEILNGINNYKNPKLTR[Nle]L[hSer][Yn3(5)]KF[Ygp(5)][Nle]PKKATELKHLQCLEEELKPLEEVL[hSer]LAQSKNFHLRPRDLISNINVIVLELKGSETTF[hSer]CEYADETATIVEFLNRWITFSQSIISTLT | 10.8 | 15.7 |
| CMP-321 (ligand, lactam N-32) SGRVQPLVDAPTSSSTKKTQLQLEHLLLDLQEILNGINNYKNPKLTR[Nle]L[hSer][Yn3(5)]KF[Ygp(5)][Nle]PKKATELKHLQCLEEELKPLEEVL[hSer]LAQSKNFHLRPRDLISNINVIVLELKGSETTF[hSer]CEYADETATIVEFLNRWITFSQSIISTLT | 4.2 | 55.1 |
| CMP-321, MMP2 cleaved molecule (ligand, lactam N-32; also: treated with MMP2 (cleavage site not given here)) SGRVQPLVDAPTSSSTKKTQLQLEHLLLDLQEILNGINNYKNPKLTR[Nle]L[hSer][Yn3(5)]KF[Ygp(5)][Nle]PKKATELKHLQCLEEELKPLEEVL[hSer]LAQSKNFHLRPRDLISNINVIVLELKGSETTF[hSer]CEYADETATIVEFLNRWITFSQSIISTLT | 0.181 | 2.94 |
| CMP-321, Matriptase cleaved molecule (ligand, lactam N-32; also: treated with matriptase (cleavage site not given here)) SGRVQPLVDAPTSSSTKKTQLQLEHLLLDLQEILNGINNYKNPKLTR[Nle]L[hSer][Yn3(5)]KF[Ygp(5)][Nle]PKKATELKHLQCLEEELKPLEEVL[hSer]LAQSKNFHLRPRDLISNINVIVLELKGSETTF[hSer]CEYADETATIVEFLNRWITFSQSIISTLT | 4.22 | 65.2 |
| CMP-152 (ligand, linker N-38 via 1,5‑pentanedioic acid‑9x polyethylene glycol linker) PLGLAGAPTSSSTKKTQLQLEHLLLDLQ[Nle]ILNGINNYKNPKLTR[Nle]L[hSer][Yn3]KF[Ygp][Nle]PKKATELKHLQCLEEELKPLEEVL[hSer]LAQSKNFHLRPRDLISNINVIVLELKGSETTF[hSer]CEYADETATIVEFLNRWITFSQSIISTLT | 0.0597 |  |
| CMP-154 (ligand, linker N-35 via 9x polyethylene glycol) PLGLAGAPTSSSTKKTQLQLEHLLLDLQ[Nle]ILNGIENYKNPKLTR[Nle]L[hSer][Yn3]KF[Ygp][Nle]PKKATELKHLQCLEEELKPLEEVL[hSer]LAQSKNFHLRPRDLISNINVIVLELKGSETTF[hSer]CEYADETATIVEFLNRWITFSQSIISTLT | 0.106 |  |
| CMP-159 (ligand, linker N-28 via 4x polyethylene glycol; reading uncertain) PLGLAGAPTSSSTKKTQLQLEHLLLDLE[Nle]ILNGINNYKNPKLTR[Nle]L[hSer][Yn3]KF[Ygp][Nle]PKKATELKHLQCLEEELKPLEEVL[hSer]LAQSKNFHLRPRDLISNINVIVLELKGSETTF[hSer]CEYADETATIVEFLNRWITFSQSIISTLT | 0.192 |  |
| CMP-161 (ligand, bridge N-32; not fully specified (bridges)) PLGLAGAPTSSSTKKTQLQLEHLLLDLQ[Nle]ILEGINNYKNPKLTR[Nle]L[hSer][Yn3]KF[Ygp][Nle]PKKATELKHLQCLEEELKPLEEVL[hSer]LAQSKNFHLRPRDLISNINVIVLELKGSETTF[hSer]CEYADETATIVEFLNRWITFSQSIISTLT | 0.168 |  |
